In doi:10.1101/2025.08.19.671101 (bioRxiv, 2025):

T1: 10E8-GT10.2 (synthetic construct; HIV-1 MPER helix …, N-linked glycan density at N74/75)
T1 construct: also called MPER-GT immunogen
T1 chain: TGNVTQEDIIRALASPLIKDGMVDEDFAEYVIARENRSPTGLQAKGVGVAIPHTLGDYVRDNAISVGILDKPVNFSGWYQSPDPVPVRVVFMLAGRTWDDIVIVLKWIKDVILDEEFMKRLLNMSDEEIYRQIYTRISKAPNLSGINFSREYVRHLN

T2: 10E8-GT12 (synthetic construct; HIV-1 MPER helix …, N-linked glycan density at N74/75)
T2 construct: also called MPER-GT immunogen
T2 chain: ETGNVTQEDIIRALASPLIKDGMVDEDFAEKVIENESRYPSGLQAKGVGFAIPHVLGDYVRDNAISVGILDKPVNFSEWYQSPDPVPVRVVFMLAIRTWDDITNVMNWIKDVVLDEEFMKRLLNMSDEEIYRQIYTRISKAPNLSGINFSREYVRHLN

B1: SA2102_10E8-like_2911_Fab (Fab, V domains shown)
VH: QVQLKQSGPGLVQPSQSLSITCTVSGFSLTSYGVHWVRQSPGKGLEWLGVIWSGGSTDYNAAFISRLSISKDNSKSQVFFKMNSLQADDTAIYYCARAPPYYDFWSGYSYYYYYMDVWGKGTTVTV
VL: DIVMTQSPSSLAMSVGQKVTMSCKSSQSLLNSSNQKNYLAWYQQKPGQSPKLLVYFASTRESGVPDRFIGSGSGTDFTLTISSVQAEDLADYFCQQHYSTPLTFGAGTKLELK
notes: also called SA2911; source: FreeStyle 293F cells, transfected, purified
B2: SA684_Exp1_Scaf_MPER-GT10v55_W6-03 (Fab, V domains shown)
VH: DVQLQESGPGLVKPSQSLSLTCSVTGYSITSGYYWNWIRQFPGNKLEWMGYISYDGSNNYNPSLKNRISITRDTSQNQFFLKLNSVTTEDTASYYCAREGPYYDFWSGYYAYYMDVWGKGTTVTVSS
VL: DIVMSQSPSSLAVSVGEKVTMSCKSSQSLLYSSNQKNYLAWYQQKPGQSPKLLIYWASTRKSGVPDRFTGSGSGTDFTLTISSVKAEDLAVYYCQQYFGYPLTFGAGTKLELK
notes: source: FreeStyle 293F cells, transfected, purified
B3: NHP-10E8_MPER-GT10v55_W3-05 (Fab, V domains shown)
VH: EVQLVESGGGLVQPGGSLRLSCAASGFTFSNYWMSWVRQAPGKGLEWVGFIKNKADGGTAAYAESVKGRFTISRDDSKNTLYLQMNSLKTEDTAVYYCARDLGRYNFWSGFYSQNRFDVWGPGVLVTVSS
VL: SYEVTQPPSVSVSPGQMARITCGGDNLGSKYVHWYQQKPAQAPVLVIYDDSERPSGIPERFSGSKSGNTATLTISGVEAGDEADYYCQVWDSSSDHPLFGGGTRLTVL
notes: as for B2
B4: NHP-10E8_MPER-GT10v55_W3-02 (Fab, V domains shown)
VH: EVQLVESGGGLVQPGGSLKLSCAASGFTFSDHYMDWVRQAPGKGLEWVSSVSSGSGSATLYPDSVKGRFTISRDNAKNTVYLQMNSLRAEDTAVYYCARRGLYYDFWSGYSDFYYGLDSWGQGVVVTVSS
VL: DIVMTQTPLSLPITPGEPASISCRSSQSLLQSNGNTYLHWYLQKPGQSPQLLIYGGSNRASGVPDRFSGSGSGTDFTLKISKVEAEDVGVYYCVQAIAFPFTFGPGTKLDIK
notes: as for B2
B5: SA684_Exp1_Scaf_MPER-GT12v56_W6-10 (Fab, V domains shown)
VH: QVTLKESGPGILQPSQTLSLTCSFSGFSLSTFGMGVGWIRQPSGKGLEWLAHIWWDDDKFYNPALKSRLTISKDTSKNQVFLKIANVDTADTATYYCARIGEDYFLDVWGKGTTVTVSS
VL: DIQMTQSPASLSASVGETVTITCRASGNIHNYLAWYQQKQGKSPQLLVYNAKTLADGVPSRFSGSGSGTQYSLKINSLQPEDFGSYYCQHFWSAPYTFGGGTNLEIK
notes: also called off-target mouse Fab W6-10; source: FreeStyle 293F cells, transfected, purified

Target: T1, 10E8-GT10.2
Test: SPR
Conditions: both partners purified

Binder | Kd
B1 | 787 nM
B2 | 9 nM
B3 | 19 nM
B4 | 7.5 nM
B5 | 3 nM

Target: T2, 10E8-GT12
Test: SPR
Conditions: both partners purified

Binder | Kd
B1 | 534 nM
B2 | 8.5 nM
B3 | 490 nM
B4 | 3400 nM
B5 | 1.8 nM
